The values below are quoted from earlier work in article PMC3090270 (Structure (London, England : 1993), 2010).

To fix the notation:
B1: D-AKAP1: dual-specific AKAP (protein, UniProt Q92667 30-903, looked up)
A-kinase anchor protein 1, …: KGHVSSHDEQQVEAGAVQLRADPAIKEPLPVEDVCPKVVSTPPSVTEPPEKELSTVSKLPAEPPALLQTHPPCRRSESSGILPNTTDMRLRPGTRRDDSTKLELALTGGEAKSIPLECPLSSPKGVLFSSKSAEVCKQDSPFSRVPRKVQPGYPVVPAEKRSSGERARETGGAEGTGDAVLGEKVLEEALLSREHVLELENSKGPSLASLEGEEDKGKSSSSQVVGPVQEEEYVAEKLPSRFIESAHTELAKDDAAPAPPVADAKAQDRGVEGELGNEESLDRNEEGLDRNEEGLDRNEESLDRNEEGLDRNEEIKRAAFQIISQVISEATEQVLATTVGKVAGRVCQASQLQGQKEESCVPVHQKTVLGPDTAEPATAEAAVAPPDAGLPLPGLPAEGSPPPKTYVSCLKSLLSSPTKDSKPNISAHHISLASCLALTTPSEELPDRAGILVEDATCVTCMSDSSQSVPLVASPGHCSDSFSTSGLEDSCTETSSSPRDKAITPPLPESTVPFSNGVLKGELSDLGAEDGWTMDAEADHSGGSDRNSMDSVDSCCSLKKTESFQNAQAGSNPKKVDLIIWEIEVPKHLVGRLIGKQGRYVSFLKQTSGAKIYISTLPYTQSVQICHIEGSQHHVDKALNLIGKKFKELNLTNIYAPPLPSLALPSLPMTSWLMLPDGITVEVIVVNQVNAGHLFVQQHTHPTFHALRSLDQQMYLCYSQPGIPTLPTPVEITVICAAPGADGAWWRAQVVASYEETNEVEIRYVDYGGYKRVKVDVLRQIRSDFVTLPFQGAEVLLDSVMPLSDDDQFSPEADAAMSEMTGNTALLAQVTSYSPTGLPLIQLWSVVGDEVVLINRSLVERGLAQWVDSYYTSL
B2: Merlin: AKAP shown to bind RI subunits (protein, UniProt P35240 1-595, looked up)
Merlin: MAGAIASRMSFSSLKRKQPKTFTVRIVTMDAEMEFNCEMKWKGKDLFDLVCRTLGLRETWFFGLQYTIKDTVAWLKMDKKVLDHDVSKEEPVTFHFLAKFYPENAEEELVQEITQHLFFLQVKKQILDEKIYCPPEASVLLASYAVQAKYGDYDPSVHKRGFLAQEELLPKRVINLYQMTPEMWEERITAWYAEHRGRARDEAEMEYLKIAQDLEMYGVNYFAIRNKKGTELLLGVDALGLHIYDPENRLTPKISFPWNEIRNISYSDKEFTIKPLDKKIDVFKFNSSKLRVNKLILQLCIGNHDLFMRRRKADSLEVQQMKAQAREEKARKQMERQRLAREKQMREEAERTRDELERRLLQMKEEATMANEALMRSEETADLLAEKAQITEEEAKLLAQKAAEAEQEMQRIKATAIRTEEEKRLMEQKVLEAEVLALKMAEESERRAKEADQLKQDLQEAREAERRAKQKLLEIATKPTYPPMNPIPAPLPPDIPSFNLIGDSLSFDFKDTDMKRLSMEIEKEKVEYMEKSKHLQEQLNELKTEIEALKLKERETALDILHNENSDRGGSSKHNTIKKLTLQSAKSRVAFFEEL
B3: Pap7: AKAP shown to bind RI subunits (protein, UniProt Q9H3P7 1-528, looked up)
Golgi resident protein GCP60: MAAVLNAERLEVSVDGLTLSPDPEERPGAEGAPLLPPPLPPPSPPGSGRGPGASGEQPEPGEAAAGGAAEEARRLEQRWGFGLEELYGLALRFFKEKDGKAFHPTYEEKLKLVALHKQVLMGPYNPDTCPEVGFFDVLGNDRRREWAALGNMSKEDAMVEFVKLLNRCCHLFSTYVASHKIEKEEQEKKRKEEEERRRREEEERERLQKEEEKRRREEEERLRREEEERRRIEEERLRLEQQKQQIMAALNSQTAVQFQQYAAQQYPGNYEQQQILIRQLQEQHYQQYMQQLYQVQLAQQQAALQKQQEVVVAGSSLPTSSKVNATVPSNMMSVNGQAKTHTDSSEKELEPEAAEEALENGPKESLPVIAAPSMWTRPQIKDFKEKIQQDADSVITVGRGEVVTVRVPTHEEGSYLFWEFATDNYDIGFGVYFEWTDSPNTAVSVHVSESSDDDEEEEENIGCEEKAKKNANKPLLDEIVPVYRRDCHEEVYAGSHQYPGRGVYLLKFDNSYSLWRSKSVYYRVYYTR

This series has as its system RI subunits. As to conditions: ref Huang et al., 1997b (D-AKAP1), 1997a (D-AKAP2), Reinton et al., 2000 (AKAP220), Gronholm et al., 2003 (Merlin), Li et al., 2001 (Pap7).
Regarding B1, the “binding to RI subunits (dual-specific)” value is recorded as “bind RI subunits”.

For the molecule B2, the “binding to RI subunits (dual-specific)” value is “bind RI subunits”. As to B3, the “binding to RI subunits (dual-specific)” value is “bind RI subunits”.
